The values that follow come from article PMC11697363 (Nature Communications, 2025).

This experiment deals with T1, GST-Pelota (Arabidopsis thaliana, UniProt Q9ZT87 1-378).
T1 sequence (looked up): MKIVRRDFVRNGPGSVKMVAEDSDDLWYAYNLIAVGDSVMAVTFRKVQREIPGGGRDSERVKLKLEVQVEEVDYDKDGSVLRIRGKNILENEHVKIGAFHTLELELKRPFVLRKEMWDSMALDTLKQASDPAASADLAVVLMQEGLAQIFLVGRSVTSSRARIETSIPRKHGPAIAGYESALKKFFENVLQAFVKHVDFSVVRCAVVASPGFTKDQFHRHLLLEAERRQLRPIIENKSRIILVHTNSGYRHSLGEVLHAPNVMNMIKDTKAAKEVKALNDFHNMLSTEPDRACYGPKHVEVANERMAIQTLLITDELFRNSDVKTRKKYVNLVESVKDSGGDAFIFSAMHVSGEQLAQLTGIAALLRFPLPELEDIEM
In words: pull-down.

B1: MBP-SCE1 (enzyme, Arabidopsis thaliana, UniProt Q42551 1-160, looked up)
chain: MASGIARGRLAEERKSWRKNHPHGFVAKPETGQDGTVNLMVWHCTIPGKAGTDWEGGFFPLTMHFSEDYPSKPPKCKFPQGFFHPNVYPSGTVCLSILNEDYGWRPAITVKQILVGIQDLLDTPNPADPAQTDGYHLFCQDPVEYKKRVKLQSKQYPALV
For B1, the binding result is given as “binds”.
